{"source": "patent US8343490B2", "about": "“Monoclonal antibody SC104 and derivative thereof specifically binding to a sialyltetraosyl carbohydrate as a potential anti-tumor therapeutic agent” (Cephalon Australia Pty Ltd, priority 2004, dated 2013)", "key": {"[1]": {"test_system": "frozen tumour tissue sections", "assay": "Immunohistochemistry staining of frozen tumour tissue sections", "assay_type": "binding, Human", "protocol": "• Immunohistochemistry staining of normal and tumour tissues. Human tissues were obtained from an Inveresk approved supplier. Each tissue used was snap frozen in liquid nitrogen and stored at approximately −70° C. (±10° C.). Cryostat sections were cut and placed onto super frost plus slides. All tissue samples were treated with an antigen marker appropriate for each tissue in order to confirm the preservation of antigens in that tissue. The markers used were keratin for epithelial bearing tissues, CD45 for all lymphoid tissues, and desmin for all cardiac and skeletal muscle. Each tissue was examined from three unrelated donors. The method of staining employed was an indirect, 2 or 3-stage method, using secondary and tertiary antibodies together with an avidin-biotin-peroxidase complex. Endogenous peroxidase activity was blocked using hydrogen peroxide. Endogenous biotin was blocked by treating all tissue sections with a sequence of avidin-biotin. When a tertiary antibody was used, all tissue sections were treated with normal swine serum, which inhibits the binding of tertiary antibodies to the tissues. Validation of the immunohistochemical staining method was determined by staining on positive control tissues, the absence on negative controls and the effect of fixation on staining of control tissues. SC104 was tested against 6 donors of colon tumour and one of heart at concentrations of […]. Tissues were fixed in either acetone or neutral buffered formalin. Two samples of colon tumour stained well enough for use as a positive control and there was no staining in heart. […] The lowest concentration of SC104 giving the maximum staining intensity was 1 μg/ml and this concentration was used for subsequent work. Results"}, "[2]": {"assay": "HPTLC immunostaining of C170 lipid extract fractions", "assay_type": "binding", "protocol": "• Lipid extraction from C170 tumour cells. A pellet of C170 cells (1 ml packed cell volume) was obtained by trypsinisation of a static adherent tissue culture. The pellet was washed in PBS and the excess buffer removed by aspiration following centrifugation, then stored at −80° C. The pellet was extracted with chloroform:methanol (3:1, v/v, 19 ml). The resultant emulsion was centrifuged at 8,000 rpm in a 50 ml solvent resistant (Tefzel) centrifuge tube for 15 min at 4° C. The supernatant was dried down using a rotary evaporator at 30° C. and resuspended in a small volume (˜1 ml) chloroform:methanol:0.5% CaCl2(aq) (50:40:10). • HPTLC analysis of lipid extracts The sample was multiply spotted onto a Merck HPTLC plate and developed in chloroform:methanol:0.5% CaCl2(aq) (50:40:10) as standard. The plates were dried and then placed in an iodine vapour tank. Bands were marked in pencil and the iodine allowed to evaporate off the plate over night. The plates were then immunostained in order to localise the antigen. • Immunostaining of developed HPTLC plates. For SC104 immunostaining, the plates were immersed in polyisobutyl methylmethacrylate (0.1% w/v solution) hexane:chloroform (9:1) for 15 seconds then allowed to dry. The plates were then blocked in 3% BSA in PBS for 1 hr at room temperature, followed by incubation in either test antibody solution (10 μg/ml) or BSA solution, for 1 hr at room temperature. The plates were then washed three times in PBS/Tween-20 (0.1%), before being incubated in rabbit anti-mouse HRP conjugate from Dako (1/250 in PBS) for 1 hr at room temperature. The plates were then washed three times in PBS/Tween −20(0.1%) and once in 10 mM Tris, 100 mM NaCl pH 7.0, 0.1% Tween and developed in Sigma-FAST […] reagent. • Chemical staining of developed HPTLC plates. Orcinol staining was employed to detect the presence of carbohydrate moieties. Developed HPTLC plates were allowed to dry before spraying with orcinol reagent until fully coated. The plates were dried in a stream of hot air and incubated at 100° C. for 15 minutes. Ninhydrin staining was used to detect molecules containing free amino groups. Developed HPTLC plate were first allowed to dry and then dipped in ninhydrin solution (0.25% ninhydrin w/v in acetone) until fully wetted. The plate was then allowed to develop at room temperature for several hours. Results\n• Silica column fractionation of lipid extract. A gravity column (150 mm i.d.) was packed with a silica slurry in chloroform:methanol:0.5% CaCl2(aq) (50:40:10). The C170 extract, re-dissolved in ˜1 ml chloroform:methanol:0.5% CaCl2(aq) (50:40:10) was loaded onto the column and eluted using the same solvent conditions. Fractions were collected and analysed by HPTLC. […]"}}}
{"molecule": "SC104: mouse IgG1 monoclonal antibody specific for a sialyltetraosyl carbohydrate, raised by immunisation with colorectal cancer cell lines (antibody, V domains shown) VH: DVQLQESGPDLVKPSQSLSLTCTVTGYSITSGYSWHWVRQFPGNKMEWMGHIHFSGRPTYNPSLSSRISITRDTSKNQFLLQLKFVTTEDTSTYFCARKGKGSDDGLNYWGQGISVTVSS VL: ENVLTQSPVIMSASPGEKVTMTCSASSSLSYIHWYQQKSRTSPKLWIYDTSNLASGVPGRFSGSGSGNSYSLTISSMEAEDVATYYCFQGSEYPLTFGGGTKLEMT", "values": [{"measurement": "Immunoreactivity with frozen tissue sections (binding)", "setting": "[1]; Tumours: Breast", "result": "3/6"}, {"measurement": "Immunoreactivity with frozen tissue sections (binding)", "setting": "[1]; Tumours: Colon", "result": "8/8"}, {"measurement": "Immunoreactivity with frozen tissue sections (binding)", "setting": "[1]; Tumours: Endometrial", "result": "2/2"}, {"measurement": "Immunoreactivity with frozen tissue sections (binding)", "setting": "[1]; Tumours: Lung", "result": 0}, {"measurement": "Immunoreactivity with frozen tissue sections (binding)", "setting": "[1]; Tumours: Oesophageal", "result": "4/4"}, {"measurement": "Immunoreactivity with frozen tissue sections (binding)", "setting": "[1]; Tumours: Ovary", "result": 0}, {"measurement": "Immunoreactivity with frozen tissue sections (binding)", "setting": "[1]; Tumours: Parotid", "result": "2/2"}, {"measurement": "Immunoreactivity with frozen tissue sections (binding)", "setting": "[1]; Tumours: Prostate", "result": 0}, {"measurement": "Immunoreactivity with frozen tissue sections (binding)", "setting": "[1]; Tumours: Renal", "result": 0}, {"measurement": "Immunoreactivity with frozen tissue sections (binding)", "setting": "[1]; Tumours: Stomach", "result": "4/4"}, {"measurement": "Immunoreactivity with frozen tissue sections (binding)", "setting": "[1]; Tumours: Testes", "result": "0/1"}, {"measurement": "lowest concentration giving the maximum staining intensity", "setting": "[1]; colon tumour positive control, neutral buffered formalin", "result": 1, "unit": "µg/mL"}, {"measurement": "binding after chemical removal of sialic acids (acid hydrolysis)", "setting": "[2]; 0.05 M sulphuric acid, 80° C., 2 hrs", "result": "complete loss of SC104 binding"}, {"measurement": "binding to asialo form", "setting": "[2]; HPTLC immunostaining", "result": "does not bind to an asialo form"}, {"measurement": "binding to sialylated glycolipid forms", "setting": "[2]; HPTLC immunostaining, silica column fractions", "result": "bind to a mono, di and even polysialylated glycolipid"}, {"measurement": "binding after ceramide glycanase removal of oligosaccharides", "setting": "[2]; aqueous and organic phase, FIG. 8", "result": "loss of SC104 binding in both fractions"}]}
